Results: patent publication US20020151006A1 (ROCKEFELLER UNIVERSITY, published 2002)

B1: bacteriophage T4 antisigma protein AsiA with a C-terminal hexahistidine tag (other)
chain: MNKNIDTVREIITVASILIKFSREDIVENRANFIAFLNEIGVTHEGRKLNQNSFRKIVSELTQEDKKTLIDEFNEGFEGVYRYLEMYTNKHHHHHH
notes: also called AsiAHis; AsiAHIS

Tests used:
[1] = target: consolidated ligand NH2-PVpYENVG6>(…ONH2); experiment: fluorescence-based titration assay in solution
[2] = target: T1, E. coli RNA polymerase sigma-70 subunit, full-length recombinant (sigma is printed as a garbled character: … (E. coli, UniProt P00579 1-613)); experiment: Ni2+-NTA agarose co-immobilization, SDS-PAGE
T1 construct: range 1-613; also called full-length ?^70; recombinant ?^70
Experimental: (§1) The indicated proteins were loaded onto Ni²⁺-NTA-agarose beads (L) and the unbound protein was removed (F). The beads were extensively washed and the bound protein was eluted with buffer containing 100 mM imidazole (E).
(§2) A mixture of AsiAHis and recombinant σ⁷⁰ was loaded onto Ni²⁺-NTA agarose beads (lane 4) and the unbound material removed (lane 5). The beads were subsequently washed with 10 mM imidazole buffer and then eluted with 100 mM imidazole buffer.

[3] = target: T2, cleavage product containing the first 567 amino acids of sigma-70 (E. coli, UniProt P00579 1-567); experiment: Ni2+-NTA agarose co-immobilization, SDS-PAGE
T2 construct: range 1-567; also called ?^70 fragment
Experimental: as §1, §2

[4] = target: T3, semisynthetic 600 amino acid-long sigma-70 derivative (ligation product of sigma-70 1-567 with the synthetic … (E. coli, UniProt P00579 1-567; P00579 568-600); experiment: Ni2+-NTA agarose co-immobilization, SDS-PAGE
T3 construct: range 1-567;range 568-600; also called semisynthetic ?^70
Experimental: as §1, §2

| Molecule | Kd [1] | binding result [2] | binding result [3] | binding result [4] |
| --- | --- | --- | --- | --- |
| Abl-[G^120C^121][SH2-^15N]SH(32), the ligation product of the Abl-SH3 and Abl-SH2 domains (from UniProt P00519 65-220) | 300 nM | – | – | – |
| B1 | – | binds | no binding | binds |
